In patent US6420338B1, “Inhibition of the Src kinase family pathway as a method of treating HBV infection and hepatocellular carcinoma” (New York University Medical Center, priority 1997, dated 2002):

What was measured:
AP-1 [1] = experiment: AP-1 electrophoretic mobility shift assay (EMSA) on nuclear extracts of Chang cells expressing HBx; type: cell-based; settings: cotransfection of increasing amounts of plasmid
Protocol: (§1) FIGS. 3A and 3B. Transcriptional activation of AP-1 by HBx involves activation of Src kinases. Chang cells transfected with 8 μg plasmids pCMV-X or pCMV-Xo, with or without cotransfection of pCsk for 18 h, then serum starved for 18 h. (FIG. 3A) Cell extracts were prepared for AP-1 EMSA as described (Benn et al., 1996, supra) using a ^32P-labeled dsDNA oligonucleotide probe containing one AP-1 binding site. Reactions were carried out using 3 μg of nuclear extract, labeled oligonuleotide and 1 μg of poly(dI-dC) for 30 min at 23° C. Protein-DNA complexes were resolved by electrophoresis on 4% polyacrylamide gels and visualized by PhosphorImage analysis. As a positive control for AP-1 stimulation, cells were treated with 20 μM TPA for 30 min. (FIG. 3B) Cells were transfected as above but contained in addition 3 μg of plasmid pAP-1LUC, which encodes the luciferase reporter under the control of four AP-1 binding sites and a minimal TATA box promoter. Serum starved cells were harvested 18 h after transfection and the level of expression of the luciferase reporter assayed. Results are the average of three independent experiments.
Nuclear extracts were prepared according to a modified Dignam protocol (Su and Schneider, 1996). […]

MAP kinase (ERK2) [2] = experiment: MAP kinase (ERK2) MBP kinase assay in Chang cells transfected with wtWHV; type: cell-based; settings: Chang cells co-transfected with wtWHV; serum-starved
Protocol: FIG. 6. Woodchuck Hepatitis B Virus (WHV) HBx protein (WHx) activates a Src-Ras signaling cascade during WHV replication in cultured cells. […] Eighteen hours post-transfection, cells were serum-starved in 0.5% CS for 20 hours, MAP kinase (ERK-2) was immunoprecipitated from equal amounts of cell lysates and pellets were subjected to an in vitro MBP kinase assay.
To assay for MAP kinase activity, cells were lysed in freshly prepared lysis buffer (10 mM Tris HCl pH 7.5, 1% Triton X-100, 0.5% NP-40, 1 mM EDTA, 1 mM EGTA, 1 mM Na3VO4, 50 mM NaF, 1 mM PMSF, 40 mM PPi, 10 μg/ml aprotinin, and 10 μg/ml leupeptin) and MAP kinase was immunoprecipitated using 1 μg/ml anti-ERK2 antibodies from equal amounts of protein. After 4 washes with lysis buffer, and 2 with kinase buffer (20 mM Hepes pH 7.4, 10 mM MgCl2), the immunoprecipitates were incubated with kinase buffer including 0.5 mg/ml myelin basic protein (MBP, Sigma), 10 mM ATP and 5 μCi [γ-^32P]ATP for 30 minutes at 30° C. […]
To determine whether WHx also requires activation of Src family kinases for stimulation of Ras signaling during ongoing viral replication, Chang cells were co-transfected with plasmids synthesizing wtWHV and dominant-negative Ras (RasDN), dominant-negative Src (SrcK^−), or Csk proteins, and activation of MAP kinase was measured. […]

MAP kinase (ERK2) [3] = experiment: MAP kinase (ERK2) immunoprecipitation MBP kinase assay in Chang cells expressing HBx; type: cell-based
AP-1 [4] = experiment: AP-1 dependent luciferase reporter in Chang cells expressing HBx; type: cell-based; settings: AP-1 luciferase reporter
Protocol: as §1
Here it is shown that HBx activation of AP-1 DNA binding activity and AP-1 directed transcription, both involve an essential requirement for HBx activation of Src tyrosine kinases. […]

N-Myc = N-Myc immunoblot of nuclear extracts of Chang cells expressing HBx; type: cell-based; settings: Chang cells co-expressing HBx; serum-starved 20 hours
Protocol: Cells were lysed in 1% Triton, 20 mM Hepes pH 7.4, 150 mM NaCl, 10% Glycerol, 1 mM Na3VO4, 50 mM NaF, 1 mM PMSF, 10 μg/ml aprotinin, and 10 μg/ml leupeptin. Equal amounts of protein were immunoprecipitated on ice for 2 hours and the immune complexes were collected by incubation with protein A-agarose (Santa Cruz) for 60 minutes at 4° C. Immunoprecipitates were washed three times with HNTG (20 mM Hepes pH 7.4, 150 mM NaCl, 0.1% Triton, and 10% Glycerol), resuspended in Laemmli sample buffer, heated to 95° C. for 10 minutes, resolved by electrophoresis on SDS-polyacrylamide gels, and immunoblotted to nitrocellulose using standard techniques (Harlow and Lane, 1988, Antibodies: A Laboratory Manual (Cold Spring Harbor, N.Y.; CSH Laboratory Press)). Immunoblots were visualized using the ECL chemiluminescence system (Amersham).
Nuclear extracts were prepared according to a modified Dignam protocol (Su and Schneider, 1996). Cell pellets were resuspended in 250 μl of cold Buffer A (10 mM Hepes pH 7.9, 1.5 mM MgCl2, 10 mM KCl, 0.5 mM DTT, 1 mM PMSF, 10 μg/ml leupeptin and 10 μg/ml aprotinin), swollen on ice for 10 min, vortexed for 10 sec, and centrifuged for 10 sec at 12,000×g. […]

CMV promoter = experiment: CMV-βgal reporter control (β-galactosidase activity); type: cell-based; settings: co-expression with CMV-βgal
Source text: To assess whether HBx activation of a Src signaling cascade plays an essential role in transcriptional upregulation of the viral mRNAs, Chang cells were co-transfected with wtWHV and either RasDN or Csk plasmids, and the RNA visualized by Northern analysis (FIG. 7, lanes 2 and 3). […] To ensure that the decrease in synthesis of WHV RNA by Csk was not the unforseen consequence of Csk inhibition of the CMV promoter (which drives synthesis of the WHV pregenomic RNA), control experiments assessing the effect of Csk on a CMV-βgal reporter were carried out. […] However, the WHx-induced increase in mRNA abundance (˜3-5 fold) is much less then the HBx-induced increase in viral DNA synthesis (˜20-30 fold). […] The stimulation of Src signaling cascades by HBx must therefore promote WHV replication independent of the effect of WHx on viral transcription.

WHV [5] = experiment: WHV replication in Chang cells, Southern blot of intracellular core-associated viral DNA; type: cell-based, Woodchuck Hepatitis B Virus; settings: Chang cells co-transfected with wtWHV; 3 days post-transfection
Protocol: FIG. 7. WHx requires activation of Src family kinase for WHV replication. Chang cells were co-transfected with 20 μg PCWHV, wtWHV, wtWHV and RasDN (dominant-negative) (10 μg), or wtWHV and Csk (10 μg). Three days post-transfection viral core-associated DNA was isolated, purified, and subjected to Southern blot analysis using a full-length ^32P-labeled WHV genomic probe.
Chang cells were transfected with infectious WHV clones, (2×10 cm plates) were washed twice with PBS and lysed in 500 μl lysis buffer/10 cm plate (20 mM Tris HCl pH 7.5, 1 mM EDTA, 100 mM NaCl, 0.5% NP-40) for 10-15 minutes. Lysates were centrifuged at 12,000×g for 30 minutes, MgCl2 was adjusted to 10 mM, DNAseI (Boehringer Mannheim) was added to 20 U /ml and the lysates were incubated at 37° C. for 2 hours. Following DNAse I treatment, the lysates were centrifuged for 5 min at 12,000×g, layered onto a 20% sucrose cushion (300 μl of 20% sucrose in 20 mM Tris HCl pH 8.0, 150 mM NaCl) and centrifuged for 178,000×g for 3 hours at 20° C. […]
Chang cells were co-transfected with plasmids encoding either wtWHV, pCWHV, wtWHV and RasDN, or wtWHV and Csk, intracellular core-associated viral DNA was isolated 3 days post-transfection, and purified viral DNA analyzed by Southern blot hybridization as described above (FIG. 7).

WHV [6] = experiment: Northern blot of WHV viral mRNAs in Chang cells; type: cell-based, Woodchuck Hepatitis B Virus; settings: Chang cells co-transfected with wtWHV
Protocol: Chang cells were washed twice with PBS and total RNA prepared according to the manufacturer's instructions (RNeasy mini kit; Qiagen). 15 μg total RNA per sample were resolved through a 1.2% formaldehyde-agarose gel (Sambrook et al., 1989, supra), transferred to Duralon UV membrane, and pre-hybridized in Quick-Hyb solution (Stratagene) at 65° C. Hybridization to 32P-labeled full length WHV probe was carried out in the same solution at 65° C., washed as described above, and autoradiographed for 1 day.
It was next addressed whether the stimulation of viral replication by WHx was a result of transcriptional transactivation of WHV genes by WHx. Chang cells were transfected with wtWHV or pCWHV plasmids. Total cellular RNA was isolated 4 days post-transfection, equal amounts of RNA were resolved by electrophoresis through a 1.2% formaldehyde-agarose gel, and the viral mRNAs were visualized by Northern blot analysis using a ^32P-labeled probe corresponding to the entire WHV genome (FIG. 8, lanes 1 and 4). Steady-state levels of the genomic viral mRNAs was enhanced ˜3-5 fold in Chang cells expressing wtWHV as compared to PCWHV. […]

B1: Csk: Csk (carboxyl-terminal Src kinase), a specific physiologic inhibitor of Src kinase, expressed from a CMV promoter plasmid (protein, UniProt P41240 2-450, looked up)
Tyrosine-protein kinase CSK: SAIQAAWPSGTECIAKYNFHGTAEQDLPFCKGDVLTIVAVTKDPNWYKAKNKVGREGIIPANYVQKREGVKAGTKLSLMPWFHGKITREQAERLLYPPETGLFLVRESTNYPGDYTLCVSCDGKVEHYRIMYHASKLSIDEEVYFENLMQLVEHYTSDADGLCTRLIKPKVMEGTVAAQDEFYRSGWALNMKELKLLQTIGKGEFGDVMLGDYRGNKVAVKCIKNDATAQAFLAEASVMTQLRHSNLVQLLGVIVEEKGGLYIVTEYMAKGSLVDYLRSRGRSVLGGDCLLKFSLDVCEAMEYLEGNNFVHRDLAARNVLVSEDNVAKVSDFGLTKEASSTQDTGKLPVKWTAPEALREKKFSTKSDVWSFGILLWEIYSFGRVPYPRIPLKDVVPRVEKGYKMDAPDGCPPAVYEVMKNCWHLDAAMRPSFLQLREQLEHIKTHELHL
effect on HBx induction of AP-1 DNA binding complexes (AP-1 [1]): suppressed
effect on downstream activation of MAP kinase by wtWHV (MAP kinase (ERK2) [2]): efficiently inhibited
effect on HBx activation of ERK2 (MAP kinase (ERK2) [3]; Chang cells co-expressing HBx, serum-starved in 0.5% CS for 24 hours): impaired
effect on HBx-induced activation of MAP kinase (MBP phosphorylation) (MAP kinase (ERK2) [3]; Chang cells co-transfected with HBx, serum-starved 20 hours, 2% serum restored for 2 hours): abolished
effect on activation of MAP kinase by insulin (MAP kinase (ERK2) [3]; Chang cells, overexpression, insulin stimulation): only slightly impaired
effect on HBx induced activation of AP-1 dependent transcription (AP-1 [4]): fully blocked
effect on increase in N-Myc protein by HBx (N-Myc): impaired
effect on expression of βgal protein from CMV-βgal (β-galactosidase activity) (CMV promoter): did not significantly alter
effect on WHV replication (viral DNA replicative intermediates) (WHV [5]): completely abolished
reduction of WHV RNA level (WHV [6]): 3-5 fold
